Laboratory results: US20170182124A1, “FGF21 Derivatives and Uses Thereof” (Novo Nordisk A/S, priority 2014, published 2017)
Changes are numbered by the printed parent chain. Like-named read-outs stand apart in the source and are kept apart here.

B1: Ala[Gln121, Cys168]FGF21 (protein)
chain: AHPIPDSSPLLQFGGQVRQRYLYTDDAQQTEAHLEIREDGTVGGAADQSPESLLQLKALKPGVIQILGVKTSRFLCQRPDGALYGSLHFDPEACSFRELLLEDGYNVYQSEAHGLPLHLPGQKSPHRDPAPRGPARFLPLPGLPPALPEPPGILAPQPPDVGSSDPLSCVGPSQGRSPSYAS
modifications: N-terminal Ala
B2: Ala[Gln121, Leu168, Cys169]FGF21 (protein)
chain: B1 chain with C169L, V170C
modifications: N-terminal Ala
B3: Ala[Gln121, Leu168, Cys177]FGF21 (protein)
chain: B1 chain with C169L, P178C
modifications: N-terminal Ala
B4: Ala[Gln121, Cys167, Leu168,]FGF21 (protein)
chain: B1 chain with S168C, C169L
modifications: N-terminal Ala
B5: Ala[Gln121, Leu168, Cys174]FGF21 (protein)
chain: B1 chain with C169L, R176C
modifications: N-terminal Ala
notes: FGF21 analogue
B6: Ala[Gln121, Leu168, Cys172]FGF21 (protein)
chain: B1 chain with C169L, Q174C
modifications: N-terminal Ala
notes: FGF21 analogue
B7: Ala[Gln121, Leu168, Cys170]FGF21 (protein)
chain: B1 chain with C169L, G171C
modifications: N-terminal Ala
B8: Ala[Gln121, Leu168, Cys171]FGF21 (protein)
chain: B1 chain with C169L, S173C
modifications: N-terminal Ala
notes: FGF21 analogue
B9: Ala[Gln121, Leu168, Cys173]FGF21 (protein)
chain: B1 chain with C169L, G175C
modifications: N-terminal Ala
notes: FGF21 analogue
B10: Ala[Gln121, Leu168, Cys175]FGF21 (protein)
chain: HPIPDSSPLLQFGGQVRQRYLYTDDAQQTEAHLEIREDGTVGGAADQSPESLLQLKALKPGVIQILGVKTSRFLCQRPDGALYGSLHFDPEACSFRELLLEDGYNVYQSEAHGLPLHLPGQKSPHRDPAPRGPARFLPLPGLPPALPEPPGILAPQPPDVGSSDPLSLVGPSQGCSPSYAS
notes: FGF21 analogue
B11: 4-[10-[[4-[2-[2-[2-[2-[2-[2-[[(1S)-5-acetamido-1-carboxy-pentyl]amino]-2-oxo-ethoxy]ethoxy]ethylamino]-2-oxo-ethoxy]ethoxy]ethylamino]-4-oxo-butyl]sulfonylamino]-10-oxo-decoxy]benzoic … (protein)
chain: B10 chain with C175R, A180C
B12: 18-[[(1S)-4-[2-[2-[2-[2-[2-[2-(2-acetamidoethylamino)-2-oxo-ethoxy]ethoxy]ethylamino]-2-oxo-ethoxy]ethoxy]ethylamino]-1-carboxy-4-oxo-butyl]amino]-18-oxo-octadecanoic … (protein)
chain: B10 chain with G170C, C175R
B13: S{Beta-176}-[2-[2-[[2-[2-[2-[[2-[2-[2-[[(4S)-4-carboxy-4-(15-carboxypentadecanoyl-amino)butanoyl]amino]ethoxy]ethoxy]acetyl]amino]ethoxy]ethoxy]acetyl]amino]-ethylamino]-2-oxoethyl]-Ala[Gln121,Leu168, … (protein)
chain: B10 chain with C175R, S176C
B14: S{Beta-169}-[2-[2-[[2-[2-[2-[[2-[2-[2-[[(4S)-4-carboxy-4-(15-carboxypentadecanoyl-amino)butanoyl]amino]ethoxy]ethoxy]acetyl]amino]ethoxy]ethoxy]acetyl]amino]-ethylamino]-2-oxoethyl]-Ala[Gln121,Leu168, … (protein)
chain: B10 chain with V169C, C175R
B15: S{Beta-174}-[2-[2-[[2-[2-[2-[[2-[2-[2-[[(4S)-4-carboxy-4-(13-carboxytridecanoyl-amino)butanoyl]amino]ethoxy]ethoxy]acetyl]amino]ethoxy]ethoxy]acetyl]amino]-ethylamino]-2-oxoethyl]-Ala[Gln121,Leu168,Cy … (protein)
chain: B10 chain with G174C, C175R
B16: S{Beta-175}-[2-[2-[[2-[2-[2-[[2-[2-[2-[[(4S)-4-carboxy-4-(15-carboxypentadecanoyl-amino)butanoyl]amino]ethoxy]ethoxy]acetyl]amino]ethoxy]ethoxy]acetyl]amino]-ethylamino]-2-oxoethyl]-Ala[Gln121,Leu168, … (protein)
chain: B10 chain
B17: 18-[[(1S)-4-[2-[2-[2-[2-[2-[2-(2-acetamidoethylamino)-2-oxo-ethoxy]ethoxy]ethylamino]-2-oxo-ethoxy]ethoxy]ethylamino]-1-carboxy-4-oxo-butyl]amino]-18-oxo-octadecanoic … (protein)
chain: B10 chain with G174C, C175R
B18: S{Beta-173}-[2-[2-[[2-[2-[2-[[2-[2-[2-[[(4S)-4-carboxy-4-(15-carboxypentadecanoyl-amino)butanoyl]amino]ethoxy]ethoxy]acetyl]amino]ethoxy]ethoxy]acetyl]amino]-ethylamino]-2-oxoethyl]-Ala[Gln121,Leu168, … (protein)
chain: B10 chain with Q173C, C175R
B19: 16-[[(1S)-4-[2-[2-[2-[2-[2-[2-(2-acetamidoethylamino)-2-oxo-ethoxy]ethoxy]ethylamino]-2-oxo-ethoxy]ethoxy]ethylamino]-1-carboxy-4-oxo-butyl]amino]-16-oxo-hexadecanoic … (protein)
chain: B10 chain with G174C, C175R

Biological target: FGF receptor/BKL complex
Sequence (Q86Z14 whole entry, one chain of several): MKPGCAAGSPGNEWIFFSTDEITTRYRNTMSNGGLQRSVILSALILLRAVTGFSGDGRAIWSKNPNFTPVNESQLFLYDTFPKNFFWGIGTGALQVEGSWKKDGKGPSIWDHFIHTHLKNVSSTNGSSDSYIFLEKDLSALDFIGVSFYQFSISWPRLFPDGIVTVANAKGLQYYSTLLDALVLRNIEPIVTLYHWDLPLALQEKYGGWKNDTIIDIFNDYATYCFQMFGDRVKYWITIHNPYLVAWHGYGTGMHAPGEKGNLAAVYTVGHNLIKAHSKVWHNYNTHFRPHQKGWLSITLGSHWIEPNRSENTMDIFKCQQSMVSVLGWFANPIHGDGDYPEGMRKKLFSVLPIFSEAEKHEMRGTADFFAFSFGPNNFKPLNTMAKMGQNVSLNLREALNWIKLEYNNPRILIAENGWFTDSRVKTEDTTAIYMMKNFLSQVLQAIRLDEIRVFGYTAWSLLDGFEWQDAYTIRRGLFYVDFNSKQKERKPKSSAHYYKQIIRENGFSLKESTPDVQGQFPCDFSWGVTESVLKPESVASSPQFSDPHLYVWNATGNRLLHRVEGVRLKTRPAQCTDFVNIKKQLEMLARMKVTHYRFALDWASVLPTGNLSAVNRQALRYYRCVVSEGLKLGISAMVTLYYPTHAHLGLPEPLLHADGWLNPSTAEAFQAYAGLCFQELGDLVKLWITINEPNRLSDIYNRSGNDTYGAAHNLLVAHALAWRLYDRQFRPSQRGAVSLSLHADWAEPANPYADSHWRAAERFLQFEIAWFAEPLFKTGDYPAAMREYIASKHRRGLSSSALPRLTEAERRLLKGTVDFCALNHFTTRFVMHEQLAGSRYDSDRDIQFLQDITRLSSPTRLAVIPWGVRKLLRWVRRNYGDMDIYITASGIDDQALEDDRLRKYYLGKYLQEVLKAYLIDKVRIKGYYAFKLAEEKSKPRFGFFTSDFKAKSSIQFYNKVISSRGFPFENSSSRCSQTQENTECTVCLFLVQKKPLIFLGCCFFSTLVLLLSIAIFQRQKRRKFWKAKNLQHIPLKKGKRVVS
Assay: FGF receptor potency in an Erk phosphorylation assay in HEK293 overexpressing human BKL
Format: cell-based
Conditions: for EC50: HEK293/BKL cells, pERK after 12 minutes
Protocol: In order to test the binding of the FGF21 derivatives to albumin, the assay was performed in the absence of serum albumin as well as in the presence of human serum albumin (HSA) (0.1% final assay concentration). An increase in EC50 value (decrease in potency) in the presence of serum albumin for FGF21 derivatives would indicate binding to serum albumin and represents a method to predict a protracted pharmacokinetic profile of the test substance in animal models. MetFGF21 (SEQ ID NO:2) is included for reference.
HEK293 cells endogenously express several FGF receptors, including FGFR1c, FGFR3c and FGFR4. These cells are unresponsive to FGF21 until transfected with the co-receptor beta-klotho (BKL). Activation of the FGF receptor/BKL complex leads to activation of the MAPK/ERK signalling pathway and phosphorylation of ERK. The level of phosphorylated ERK (pERK) at a given time point increases with increasing concentrations of FGF21. As described below the level of pERK is measured after 12 minutes of stimulation with a range of FGF21 analogue concentrations.
The HEK293/beta-klotho cells are seeded with 30.000 cells/well in 96 well plates in DMEM (BioWhittaker #BE12-604F/U1), supplemented with 10% FCS (Gibco #16140-071), 1% penicillin/streptomycin (Gibco #15140), 100 µg/ml Hygromycin B, (Calbiochem, # 400052). Two days later and 2 hours before addition of compound the cell medium is exchanged with 100 ∞l basal medium (DMEM (BioWhittaker #BE12-604F/U1)). The FGF21 analogues are diluted in assay medium (DMEM (BioWhittaker #BE12-604F/U1) supplemented with 0.02% Tween20), warmed to 37° C., added to the cells (100 μl) and incubated at 37° C. for 12 minutes. The FGF21 derivatives were also tested in the presence of 0.1% HSA (Sigma—A1887). All medium is quickly removed and 50 μl lysis buffer is added pr. well. The plate is shaken for 5 minutes and the lysate is ready for measurement of pERK. pERK is measured in 384 well plates with the AlphaScreen SureFire kit (PerkinElmer #TGRES10K). This kit is based on ERK and pERK specific antibodies coupled to donor and acceptor beads. The presence of pERK will bring acceptor and donor beads in close proximity and a signal is generated that is read on EnVision. The data are analysed using GraphPad Prism and the potency of the FGF21 proteins is described as absolute EC50 value.

[1] = presence of 0.1% HSA, read-out: EC50 (0.1% HSA)

| Molecule | EC50 (absence of HSA, read-out: EC50) | EC50 [1] | potency in HEK293/BKL cells compared with MetFGF21 or corresponding analogue (in words) (absence of HSA) |
| --- | --- | --- | --- |
| S{Beta-168}-[2-[2-[[2-[2-[2-[[2-[2-[2-[[(4S)-4-carboxy-4-(13-carboxytridecanoyl-amino)butanoyl]amino]ethoxy]ethoxy]acetyl]amino]ethoxy]ethoxy]acetyl]amino]-ethylamino]-2-oxoethyl]-Ala[Gln121,Cys168]FGF21 [Compound 34] | 667 nM | 4260 nM | – |
| B1 | 492 nM | – | decreased potency |
| B2 | 22 nM | – | – |
| B3 | 416 nM | – | – |
| B4 | 4 nM | – | – |
| B5 | 5 nM | – | – |
| B6 | 5 nM | – | – |
| B7 | 7 nM | – | – |
| B8 | 8 nM | – | – |
| B9 | 4 nM | – | – |
| B10 | 11 nM | – | – |
| B11 | 3.2 nM | 4 nM | – |
| B12 | 1 nM | 20 nM | – |
| B13 | 214 nM | 373 nM | – |
| B14 | 25 nM | 20 nM | – |
| B15 | 4 nM | 4 nM | – |
| B16 | 1 nM | 1 nM | – |
| B17 | 1 nM | 1 nM | – |
| B18 | 3 nM | 4 nM | – |
| B19 | 2 nM | 4 nM | – |
